According to publication PMC7702011 (2020):

Target: Recombinant NPTN polypeptide (UniProt Q9Y639 29-398)
Assay: MST

Recombinant NPTN polypeptide, sequence (Q9Y639 29-339): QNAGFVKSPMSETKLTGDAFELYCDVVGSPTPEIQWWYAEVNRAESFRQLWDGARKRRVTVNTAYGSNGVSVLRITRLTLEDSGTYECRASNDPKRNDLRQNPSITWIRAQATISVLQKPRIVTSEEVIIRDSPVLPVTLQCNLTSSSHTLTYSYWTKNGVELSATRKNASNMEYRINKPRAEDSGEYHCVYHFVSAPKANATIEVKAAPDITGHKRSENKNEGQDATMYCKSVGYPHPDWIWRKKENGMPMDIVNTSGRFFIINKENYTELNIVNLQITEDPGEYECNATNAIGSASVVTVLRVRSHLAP

Kd: 104 nM
B1: Recombinant MANF polypeptide, labeled with Alexa 647 (ligand)
chain: LRPGDCEVCISYLGRFYQDLKDRDVTFSPATIENELIKFCREARGKENRLCYYIGATDDAATKIINEVSKPLAHHIPVEKICEKLKKKDSQICELKYDKQIDLSTVDLKKLRVKELKKILDDWGETCKGCAEKSDYIRKINELMPKYAPKAASARTDL
modifications: fluorescently labeled with Alexa 647
